In patent publication US20250019439A1 (Adimab, published 2025):

Columns and labels:
ADI-70327 = molecular target: T1, ADI-70327; assay: SPR Carterra, yeast anti-ID
T1 construct: anti-CD3 antibody made in CHO cells, captured by anti-human Fc
Protocol: (§1) Kinetic analysis was conducted at 25° C. in an HBSTE running buffer system (Carterra Cat #3630) using a Carterra LSA (Carterra USA, Salt Lake City, UT). The sample compartment was maintained at 20° C. for the duration of each experiment.
(§2) For antibody capture experiments, a goat anti-human Fc antibody (Jackson ImmunoResearch) was covalently coupled to an HC30M sensor chip surface via standard amine coupling (1:1 EDC:NHS) and then blocked with ethanolamine (1.0 M, pH 8.5). Covalent coupling steps were performed in 25 mM MES buffer (Carterra, Cat #3625) plus 0.05% Tween20. The anti-CD3 antibodies (100 nM in running buffer) were flowed over discrete regions of interest on the chip surface for 5 minutes. […] Dissociation of the anti-idiotype antibodies was monitored for 300s. Several blank buffer samples were injected over the entire chip surface at the start of each non-regenerative kinetic cycle. The preceding blank buffer injection was used for blank surface subtraction. At the end of each non-regenerative kinetic cycle, all surfaces were regenerated via two 30s injections of 10 mM glycine, pH 1.7.
(§3) For data processing and fitting, sensorgrams were double reference subtracted with a baseline drift correction of 4 RU. Sensorgrams were y-aligned and baseline corrected, filtered and cropped to include only the association and dissociation steps. Data was fitted to a 1:1 binding model using Carterra Kinetics Data Analysis software version 1.7.1.3055.

ADI-70330 = molecular target: T2, ADI-70330; assay: SPR Carterra, yeast anti-ID
T2 construct: anti-CD3 antibody made in CHO cells, captured by anti-human Fc
Protocol: as §1, §2, §3

ADI-67445 = molecular target: T3, ADI-67445; assay: SPR Carterra, yeast anti-ID
T3 construct: anti-CD3 antibody made in CHO cells, captured by anti-human Fc
Protocol: as §1, §2, §3

ADI-26915 = molecular target: T4, ADI-26915; assay: SPR Carterra, yeast anti-ID
T4 construct: anti-CD3 antibody made in CHO cells, captured by anti-human Fc
Protocol: as §1, §2, §3

CTL-62223 = molecular target: T5, CTL-62223; assay: SPR Carterra, yeast anti-ID
T5 construct: also called mosunetuzumab
Protocol: as §1, §2, §3

CTL-62227 = molecular target: T6, CTL-62227; assay: SPR Carterra, yeast anti-ID
T6 construct: also called odronextamab
Protocol: as §1, §2, §3

CTL-62228 = molecular target: T7, CTL-62228; assay: SPR Carterra, yeast anti-ID
T7 construct: also called glofitamab
Protocol: as §1, §2, §3

CTL-62240 = molecular target: T8, CTL-62240; assay: SPR Carterra, yeast anti-ID
T8 construct: also called ONO-4685
T8 sequence (VH, as listed by the source, chain 1 of 2): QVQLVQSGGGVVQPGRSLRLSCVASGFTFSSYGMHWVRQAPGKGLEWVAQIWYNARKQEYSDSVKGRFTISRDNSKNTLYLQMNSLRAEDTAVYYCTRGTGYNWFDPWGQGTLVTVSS
T8 sequence (VL, as listed by the source, chain 2 of 2): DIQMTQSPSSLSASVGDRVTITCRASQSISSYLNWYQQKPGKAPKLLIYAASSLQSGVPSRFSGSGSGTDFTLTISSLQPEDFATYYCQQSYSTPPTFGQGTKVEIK
Protocol: as §1, §2, §3

ADI-50024 = molecular target: T9, ADI-50024; assay: SPR Carterra avidity, yeast anti-ID
T9 construct: anti-CD3 antibody made in CHO cells, captured by anti-human Fc
Protocol: as §1, §2, §3

ADI-70326 = molecular target: T10, ADI-70326; assay: SPR Carterra avidity, yeast anti-ID
T10 construct: anti-CD3 antibody made in CHO cells, captured by anti-human Fc
Protocol: as §1, §2, §3

ADI-67450 = molecular target: T11, ADI-67450; assay: SPR Carterra avidity, yeast anti-ID
T11 construct: anti-CD3 antibody made in CHO cells, captured by anti-human Fc
Protocol: as §1, §2, §3

ADI-67447 = molecular target: T12, ADI-67447; assay: SPR Carterra avidity, yeast anti-ID
T12 construct: anti-CD3 antibody made in CHO cells, captured by anti-human Fc
T12 sequence (VH, as listed by the source limits assumed, chain 1 of 2): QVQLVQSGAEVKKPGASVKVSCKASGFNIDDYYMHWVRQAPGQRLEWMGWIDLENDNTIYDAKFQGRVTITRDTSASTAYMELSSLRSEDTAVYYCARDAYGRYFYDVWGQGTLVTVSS
T12 sequence (VL, as listed by the source limits assumed, chain 2 of 2): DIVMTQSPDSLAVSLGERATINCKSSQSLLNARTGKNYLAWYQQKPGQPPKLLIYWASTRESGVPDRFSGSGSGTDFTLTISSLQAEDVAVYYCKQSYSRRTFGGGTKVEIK
Protocol: as §1, §2, §3

ADI-26909 = molecular target: T13, ADI-26909; assay: SPR Carterra avidity, yeast anti-ID
T13 construct: anti-CD3 antibody made in CHO cells, captured by anti-human Fc
T13 sequence (VH, as listed by the source limits assumed, chain 1 of 2): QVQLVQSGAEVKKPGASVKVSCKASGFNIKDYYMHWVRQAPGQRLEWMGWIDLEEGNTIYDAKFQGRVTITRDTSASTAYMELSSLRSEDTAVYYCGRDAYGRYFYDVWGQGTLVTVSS
Protocol: as §1, §2, §3

ADI-26921 IgG = molecular target: T14, ADI-26921 IgG; assay: SPR Carterra avidity, yeast anti-ID
T14 construct: anti-CD3 IgG
T14 sequence (VH, as listed by the source limits assumed, chain 1 of 2): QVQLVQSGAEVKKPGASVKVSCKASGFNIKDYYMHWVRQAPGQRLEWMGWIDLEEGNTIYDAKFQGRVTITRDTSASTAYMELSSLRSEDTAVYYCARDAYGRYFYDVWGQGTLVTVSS
T14 sequence (VL, as listed by the source limits assumed, chain 2 of 2): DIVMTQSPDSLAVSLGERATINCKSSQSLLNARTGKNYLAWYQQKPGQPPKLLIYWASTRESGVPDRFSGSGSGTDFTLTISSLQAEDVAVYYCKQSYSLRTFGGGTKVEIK
Protocol: as §1, §2, §3

ADI-26912 = molecular target: T15, ADI-26912; assay: SPR Carterra avidity, yeast anti-ID
T15 construct: anti-CD3 antibody made in CHO cells, captured by anti-human Fc
T15 sequence (VH, as listed by the source, chain 1 of 2): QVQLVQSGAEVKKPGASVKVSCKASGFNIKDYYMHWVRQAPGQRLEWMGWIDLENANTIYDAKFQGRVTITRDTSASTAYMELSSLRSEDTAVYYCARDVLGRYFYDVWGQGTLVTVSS
Protocol: as §1, §2, §3

ADI-48576 = molecular target: T16, ADI-48576; assay: SPR Carterra avidity, yeast anti-ID
T16 construct: pH-dependent anti-CD3 antibody made in CHO cells
Protocol: as §1, §2, §3

ADI-48587 = molecular target: T17, ADI-48587; assay: SPR Carterra avidity, yeast anti-ID
T17 construct: pH-dependent anti-CD3 antibody made in CHO cells
T17 sequence (VH, as listed by the source, chain 1 of 2): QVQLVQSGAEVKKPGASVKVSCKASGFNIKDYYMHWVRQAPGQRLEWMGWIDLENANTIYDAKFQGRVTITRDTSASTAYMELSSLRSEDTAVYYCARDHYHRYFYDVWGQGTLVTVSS
T17 sequence (VL, as listed by the source, chain 2 of 2): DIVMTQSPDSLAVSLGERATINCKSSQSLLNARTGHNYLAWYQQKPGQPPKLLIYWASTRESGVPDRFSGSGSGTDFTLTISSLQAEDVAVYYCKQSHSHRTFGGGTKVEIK
Protocol: as §1, §2, §3

ADI-48592 = molecular target: T18, ADI-48592; assay: SPR Carterra avidity, yeast anti-ID
T18 construct: pH-dependent anti-CD3 antibody made in CHO cells
Protocol: as §1, §2, §3

ADI-48650 = molecular target: T19, ADI-48650; assay: SPR Carterra avidity, yeast anti-ID
T19 construct: pH-dependent anti-CD3 antibody made in CHO cells
T19 sequence (VH, as listed by the source, chain 1 of 2): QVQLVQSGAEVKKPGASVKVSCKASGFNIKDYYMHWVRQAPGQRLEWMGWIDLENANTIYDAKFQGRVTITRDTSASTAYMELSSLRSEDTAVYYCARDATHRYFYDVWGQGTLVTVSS
T19 sequence (VL, as listed by the source, chain 2 of 2): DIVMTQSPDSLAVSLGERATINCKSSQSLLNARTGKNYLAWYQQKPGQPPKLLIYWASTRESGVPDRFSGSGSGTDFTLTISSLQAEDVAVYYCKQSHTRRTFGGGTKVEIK
Protocol: as §1, §2, §3

ADI-74965 = molecular target: T20, ADI-74965; assay: SPR Carterra avidity, yeast anti-ID
T20 construct: pH-dependent anti-CD3 antibody made in CHO cells
T20 sequence (VH, as listed by the source, chain 1 of 2): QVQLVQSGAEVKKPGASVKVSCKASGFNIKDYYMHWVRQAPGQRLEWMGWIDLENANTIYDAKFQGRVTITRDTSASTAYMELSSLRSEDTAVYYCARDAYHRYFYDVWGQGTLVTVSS
Protocol: as §1, §2, §3

ADI-74966 = molecular target: T21, ADI-74966; assay: SPR Carterra avidity, yeast anti-ID
T21 construct: pH-dependent anti-CD3 antibody made in CHO cells
T21 sequence (VL, as listed by the source, chain 2 of 2): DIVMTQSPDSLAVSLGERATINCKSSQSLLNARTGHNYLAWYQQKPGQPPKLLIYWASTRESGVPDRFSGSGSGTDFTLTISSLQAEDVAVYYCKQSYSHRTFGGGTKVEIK
Protocol: as §1, §2, §3

ADI-74967 = molecular target: T22, ADI-74967; assay: SPR Carterra avidity, yeast anti-ID
T22 construct: pH-dependent anti-CD3 antibody made in CHO cells
T22 sequence (VL, as listed by the source, chain 2 of 2): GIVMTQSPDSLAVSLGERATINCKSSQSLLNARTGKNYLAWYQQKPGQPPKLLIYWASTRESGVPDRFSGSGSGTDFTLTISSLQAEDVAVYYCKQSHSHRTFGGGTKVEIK
Protocol: as §1, §2, §3

ADI-74968 = molecular target: T23, ADI-74968; assay: SPR Carterra avidity, yeast anti-ID
T23 construct: pH-dependent anti-CD3 antibody made in CHO cells
Protocol: as §1, §2, §3

ADI-76358 = molecular target: T24, ADI-76358; assay: SPR Carterra avidity, yeast anti-ID
T24 construct: anti-CD3 antibody made in CHO cells, captured by anti-human Fc
Protocol: as §1, §2, §3

ADI-76359 = molecular target: T25, ADI-76359; assay: SPR Carterra avidity, yeast anti-ID
T25 construct: anti-CD3 antibody made in CHO cells, captured by anti-human Fc
Protocol: as §1, §2, §3

ADI-76360 = molecular target: T26, ADI-76360; assay: SPR Carterra avidity, yeast anti-ID
T26 construct: anti-CD3 antibody made in CHO cells, captured by anti-human Fc
Protocol: as §1, §2, §3

ADI-76361 = molecular target: T27, ADI-76361; assay: SPR Carterra avidity, yeast anti-ID
T27 construct: anti-CD3 antibody made in CHO cells, captured by anti-human Fc
T27 sequence (VH, as listed by the source, chain 1 of 2): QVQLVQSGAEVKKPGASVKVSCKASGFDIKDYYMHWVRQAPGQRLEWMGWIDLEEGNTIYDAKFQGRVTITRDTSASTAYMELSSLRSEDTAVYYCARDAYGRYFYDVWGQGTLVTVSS
Protocol: as §1, §2, §3

ADI-76362 = molecular target: T28, ADI-76362; assay: SPR Carterra avidity, yeast anti-ID
T28 construct: anti-CD3 antibody made in CHO cells, captured by anti-human Fc
Protocol: as §1, §2, §3

ADI-22523 Fab = molecular target: T29, ADI-22523 Fab; assay: BLI; tip anti-ID IgG, solution ADI-22523 Fab
T29 construct: anti-CD3 Fab by papain digestion of the IgG
T29 sequence (VH, as listed by the source limits assumed, chain 1 of 2): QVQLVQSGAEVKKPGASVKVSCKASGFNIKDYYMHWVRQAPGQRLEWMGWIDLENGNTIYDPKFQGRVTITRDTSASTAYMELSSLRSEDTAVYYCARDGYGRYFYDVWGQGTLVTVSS
T29 sequence (VL, as listed by the source limits assumed, chain 2 of 2): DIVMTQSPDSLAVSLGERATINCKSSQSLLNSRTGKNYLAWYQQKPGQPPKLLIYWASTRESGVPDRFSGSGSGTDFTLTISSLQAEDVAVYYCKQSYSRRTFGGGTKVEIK
Protocol: (§4) ForteBio affinity measurements were performed generally as previously described (Estep et al., MAbs. 2013 5(2):270-8). Briefly, ForteBio affinity measurements were performed by loading antibody IgG or Fabs on-line onto AHC sensors. Sensors were equilibrated off-line in assay buffer for 30 minutes and then monitored on-line for 60 seconds for baseline establishment. For avid binding measurement, sensors with loaded antibodies were exposed to IgG or Fab solutions for 3 minutes, afterwards they were transferred to assay buffer for 3 minutes for off-rate measurement. Kinetics data were fit using a 1:1 binding model in the data analysis software provided by ForteBio to obtain equilibrium dissociation constant (KD=koff/kₒₙ) values. In each column, tip-immobilized antibodies are listed first and solution antibodies second.

ADI-22523 IgG = molecular target: T30, ADI-22523 IgG; assay: BLI; tip anti-ID IgG, solution ADI-22523 IgG
T30 construct: anti-CD3 IgG
Protocol: as §4

ADI-26906 IgG = molecular target: T31, ADI-26906 IgG; assay: SPR Carterra avidity, yeast anti-ID, *koff limit
T31 construct: anti-CD3 IgG
Protocol: as §1, §2, §3

ADI-26913 IgG = molecular target: T32, ADI-26913 IgG; assay: SPR Carterra avidity, yeast anti-ID, *koff limit
T32 construct: anti-CD3 IgG
T32 sequence (VH, as listed by the source limits assumed, chain 1 of 2): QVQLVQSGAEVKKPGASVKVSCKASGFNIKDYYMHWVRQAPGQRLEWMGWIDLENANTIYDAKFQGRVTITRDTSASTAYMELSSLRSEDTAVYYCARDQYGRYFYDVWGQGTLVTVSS
Protocol: as §1, §2, §3

ADI-26919 = molecular target: T33, ADI-26919; assay: SPR Carterra avidity, yeast anti-ID, *koff limit
T33 construct: anti-CD3 antibody made in CHO cells, captured by anti-human Fc
Protocol: as §1, §2, §3

ADI-26920 IgG = molecular target: T34, ADI-26920 IgG; assay: SPR Carterra avidity, yeast anti-ID, *koff limit
T34 construct: anti-CD3 IgG
T34 sequence (VH, as listed by the source limits assumed, chain 1 of 2): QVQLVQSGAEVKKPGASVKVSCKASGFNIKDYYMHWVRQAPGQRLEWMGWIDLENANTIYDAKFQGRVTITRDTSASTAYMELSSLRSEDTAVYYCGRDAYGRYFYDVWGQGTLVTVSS
Protocol: as §1, §2, §3

ADI-26916 IgG = molecular target: T35, ADI-26916 IgG; assay: SPR Carterra avidity, yeast anti-ID, *koff limit
T35 construct: anti-CD3 IgG
T35 sequence (VH, as listed by the source, chain 1 of 2): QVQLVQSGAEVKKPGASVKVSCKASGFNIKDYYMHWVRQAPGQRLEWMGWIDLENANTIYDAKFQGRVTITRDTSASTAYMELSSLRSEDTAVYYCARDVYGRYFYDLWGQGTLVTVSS
Protocol: as §1, §2, §3

ADI-26924 = molecular target: T36, ADI-26924; assay: SPR Carterra avidity, yeast anti-ID, *koff limit
T36 construct: anti-CD3 antibody made in CHO cells, captured by anti-human Fc
Protocol: as §1, §2, §3

ADI-26943 = molecular target: T37, ADI-26943; assay: SPR Carterra avidity, yeast anti-ID, *koff limit
T37 construct: anti-CD3 antibody made in CHO cells, captured by anti-human Fc
T37 sequence (VH, as listed by the source, chain 1 of 2): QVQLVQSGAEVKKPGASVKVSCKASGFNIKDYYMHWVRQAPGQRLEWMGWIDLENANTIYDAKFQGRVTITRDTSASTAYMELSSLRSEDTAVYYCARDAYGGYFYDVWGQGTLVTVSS
T37 sequence (VL, as listed by the source, chain 2 of 2): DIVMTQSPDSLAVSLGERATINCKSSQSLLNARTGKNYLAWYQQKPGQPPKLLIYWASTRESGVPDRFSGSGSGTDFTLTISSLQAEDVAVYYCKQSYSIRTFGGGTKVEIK
Protocol: as §1, §2, §3

ADI-76357 = molecular target: T38, ADI-76357; assay: SPR Carterra avidity, yeast anti-ID, *koff limit
T38 construct: anti-CD3 antibody made in CHO cells, captured by anti-human Fc
Protocol: as §1, §2, §3

B1: ADI-34141 (antibody, V domains shown)
VH: EVQLLESGGGLVQPGGSLRLSCAASGFTFSSYAMSWVRQAPGKGLEWVSTISGSGGSTYYADSVKGRFTISRDNSKNTLYLQMNSLRAEDTAVYYCARLGGRRGSGSSYYYYYGMDVWGQGTTVTVSS
VL: not shown
notes: anti-ID IgG
binding result (ADI-70327): no binding (tested: up to 200 nM) | binding result (ADI-70330): no binding (tested: up to 200 nM) | binding result (ADI-67445): no binding (tested: up to 200 nM) | binding result (ADI-26915): no binding (tested: up to 200 nM) | binding result (CTL-62223): no binding (tested: up to 200 nM) | binding result (CTL-62227): no binding (tested: up to 200 nM) | binding result (CTL-62228): no binding (tested: up to 200 nM) | binding result (CTL-62240): no binding (tested: up to 200 nM) | binding result (ADI-50024): binds | binding result (ADI-70326): binds | binding result (ADI-67450): binds | Kd (ADI-67447): 17 nM | binding result (ADI-26909): binds | binding result (ADI-26921 IgG): binds | binding result (ADI-26912): binds | Kd (ADI-48576): 22 nM | binding result (ADI-48587): binds | binding result (ADI-48592): binds | binding result (ADI-48650): binds | Kd (ADI-74965): 33 nM | Kd (ADI-74966): 51 nM | Kd (ADI-74967): 32 nM | Kd (ADI-74968): 63 nM | binding result (ADI-76358): binds | Kd (ADI-76359): 14 nM | Kd (ADI-76360): 54 nM | binding result (ADI-76361): binds | binding result (ADI-76362): binds | Kd (ADI-22523 Fab): 16.5 nM | Kd (ADI-22523 IgG): 2.83 nM | Kd (ADI-26906 IgG): 13 nM | Kd (ADI-26913 IgG): 7 nM | Kd (ADI-26919): 10 nM | Kd (ADI-26920 IgG): 7.1 nM | Kd (ADI-26916 IgG): 10 nM | Kd (ADI-26924): 5.4 nM | Kd (ADI-26943): 5.7 nM | Kd (ADI-76357): 7.6 nM
